Assay [1] concerns the target MBP-Tgat (aa 1-255) (UniProt O75962). Put plainly: FRET mant-GTP nucleotide exchange kinetics; kobs against GST-TRIP peptide concentration (up to 100 µM), hyperbolic fit; RhoA 1 µM, Tgat 0.5 µM.
For assay [2] the target is unchanged. Put plainly: cell-based or functional assay.

In patent publication US20120258099A1 one finds Ki and efficiency data, which are given here for three molecules.

Substitutions are numbered along the chain they refer to. Ends that are not written are not given here. GST = glutathione S-transferase tag encoded by vector pGEX-5X2

One may read the Ki as a measure of affinity in units of concentration, obtained from inhibition or displacement.

B1: GST-TRIPE32G (peptide, not shown: a dimerising Fc or GST; large carriers; small tags and cut ends)
peptide: AREGADGAICGYNLATLVMLGPSERVFCPLCGPCSSDIYELM
modifications: not fully specified (N-terminus); cysteine pairing not given here; also: fused to GST, GST carrier and linker letters not given here
B1 had an inhibitory constant (Ki) in the assay with MBP-Tgat (aa 1-255) [1] of 7.4 µM. The molecule further displayed an efficiency at inhibiting the exchange activity of Tgat, against TRIPα in the assay with MBP-Tgat (aa 1-255) [2] of 15 fold.

B2: GST-TRIPT16M/L17S (peptide, not shown: a dimerising Fc or GST; large carriers; small tags and cut ends)
peptide: B1 peptide with T16M, L17S, G32E
modifications: not fully specified (N-terminus); cysteine pairing not given here; also: fused to GST, GST carrier and linker letters not given here
Regarding B2, the Ki with MBP-Tgat (aa 1-255) [1] is 5.1 µM. In the assay with MBP-Tgat (aa 1-255) [2], this molecule registered an efficiency at inhibiting the exchange activity of Tgat, against TRIPα of 15 fold.

B3: GST-TRIPα (peptide, not shown: a dimerising Fc or GST)
chain: {GST}-AREGADGAICGYNLATLVMLGPSERVFCPLCEPCSSDIYELM
modifications: cysteine pairing not given here; also: fused to GST, GST carrier and linker letters not given here
On to B3, for which, in the assay with MBP-Tgat (aa 1-255) [1], the Ki stood at 89 µM.
